# In patent publication US10550172B2, “Serpin reactive center loop peptides and methods of use” (University of Florida Research Foundation, Incorporated, priority 2015, dated 2020):
# “Also recorded” adds a separate entry of the source. Where a SMILES comes first, the peptide text is derived from it. Where no end group is shown, it is not given here.
# B1: Serp-1: secreted myxomavirus-derived protein (serpin) that binds and inhibits uPA, tPA, plasmin and factor X (protein)
# chain: RDIGLWTFRYVYNESDNVVFSPYGLTSALSVLRIAAGGNTKREIDVPESVVEDSDAFLALRELFVDASVPLRPEFTAEFSSRFNTSVQRVTFNSENVKDVINSYVKDKTGGDVPRVLDASLDRDTKMLLLSSVRMKTSWRHVFDPSFTTDQPFYSGNVTYKVRMMNKIDTLKTETFTLRNVGYSVTELPYKRRQTAMLLVVPDDLGEIVRALDLSLVRFWIRNMRKDVCQVVMPKFSVESVLDLRDALQRLGVRDAFDPSRADFGQASPSNDLYVTKVLQTSKIEADERGTTASSDTAITLIPRNALTAIVANKPFMFLIYHKPTTTVLFMGTITKGEKVIYDTEGRDDVVSSV
# B2: NSP: mammalian serpin, neuroserpin, that binds tPA and uPA (protein)
# chain: TGATFPEEAIADLSVNMYNRLRATGEDENILFSPLSIALAMGMMELGAQGSTQKEIRHSMGYDSLKNGEEFSFLKEFSNMVTAKESQYVMKIANSLFVQNGFHVNEEFLQMMKKYFNAAVNHVDFSQNVAVANYINKWVENNTNNLVKDLVSPRDFDAATYLALINAVYFKGNWKSQFRPENTRTFSFTKDDESEVQIPMMYQQGEFYYGEFSDGSNEAGGIYQVLEIPYEGDEISMMLVLSRQEVPLATLEPLVKAQLVEEWANSVKKQKVEVYLPRFTVEQEIDLKDVLKALGITEIFIKDANLTGLSDNKEIFLSKAIHKSFLEVNEEGSEAAAVSGMIAISRMAVLYPQVIVDHPFFFLIRNRRTGTILFMGRVMHPETMNTSGHDFEEL
# What was measured:
# [1] = test system: aortic allograft (plaque growth); assay: Mouse aortic allograft transplant model
# Protocol: To assess potential anti-inflammatory actions of individual serpin-derived peptides, peptide treatment was tested in mice after aortic allograft transplant at 4 weeks.
# Ninety three mice had aortic allograft transplantation; 56 had PAI-1−/− (C57BL/6 background) donor to BALB/c (PAI-1+/+) recipient; and 37 had C57BL/6 wild type (PAI-1+/+) to BALB/c (PAI-1+/+) recipient. […] Due to the large number of surgeries required, both the PAI-1−/− and the WT mouse implants were utilized. The PAI-1−/− mice also allowed analysis of serpin response in a mouse transplant lacking a key thrombolysis regulating serpin, PAI-1. A 0.3 cm aortic segment isolated from the donor mouse was transplanted into the infra-renal aorta of recipient mice for aortic allograft studies (Table 1). The aortic transplant was anastomosed end-to-end using Sharpoint 11/0 nylon sutures (Surgical Specialties Corporation, Reiding, Mass., USA) under general anesthetic (6.5 mg/100 g body weight Somnotrol, MTC Pharmaceuticals, Cambridge, ON, Canada) given by intramuscular (i.m.) injection. WT C57BL/6 mice were purchased directly from Jackson Laboratories (Bar Harbor, Me., U.S.A.) and PAI-1−/− mice were bred in-house using mice supplied by Jackson Laboratories prior to surgery. Mice were followed for 4 weeks after transplant. […] Serpins or serpin-derived peptides were infused by intravenous (i.v.) tail vein injection immediately after transplant surgery, once aortic pulsation was again visible. At 4 weeks after aortic transplant, mice were euthanized with 0.05 ml euthanyl (Bimeda—MTC Animal Health Ltd., Cambridge, ON, Canada) by i.m. injection.
# Donor aortic transplant implants and adjacent recipient aorta (0.5-0.6 cm long) were cut into two 0.25-0.3 cm pieces, fixed, paraffin embedded, and cut into 5 μm sections (two per aortic section, providing 4 sections for analysis of each transplanted mouse aorta) and stained with Haematoxylin and eosin for morphometric analysis. Areas of plaque, lumen and internal elastic lamina were measured by means of the Olympus application program using a Sony Power HAD3CCD color video camera attached to the microscope and calibrated to the microscope objective. The mean total cross sectional area of the intima, using sections with the largest detectable plaque area, was calculated for each aortic specimen. Numbers of invading mononuclear cells were counted per high powered field area at three sites in the intimal, medial and adventitial layers and the mean count for each arterial layer and specimen calculated.
# [2] = patients with acute unstable angina after stent implantation; cited from earlier work
# [3] = test system: Jurkat T cells; assay: RT-PCR signaling pathway gene expression analysis, Jurkat T cells; type: cell-based, human; settings: vs saline
# From the text: (§1) Shared effects of Serp-1 and S-1, one of the active Serp-1 RCL peptide inhibitors for plaque growth, on transcription of representative genes in signaling pathways were studied in human Jurkat T cell (FIG. 5A and FIG. 5B) and THP-1 monocytes (FIGS. […]). […] Serp-1 and the Serp-1 peptides (serpin-derived peptides) S-1 and S-5 were compared to saline treated controls. Genes with two-fold change in expression with P-value less than 0.05 by Student's t-test were considered significant.
# (§2) To further examine potential mechanisms of inhibitory activity for individual serpin peptides, THP-1 monocyte and Jurkat T cells in culture were treated with individual serpins or serpin-derived peptides with proven inhibitory activity for plaque growth in vivo (Viswanathan K, et al. (2009) B. J Leukoc Biol 85: 418-426; Viswanathan K, et al. (2006) Thromb Haemost 95: 499-510; Chen H, et al. (2013) Antimicrob Agents Chemother 57: 4114-4127; and Viswanathan K, et al. (2012) PLoS One 7: e44694). RT-PCR signaling pathway gene arrays (Sigma-Aldrich, St. Louis, Mo., USA) were analyzed in triplicate per cell type using predicted peptide or serpin treatment.
# [4] = biological target: T1, urokinase-type plasminogen activator (uPA) (Homo sapiens, UniProt P00749); assay: uPA chromogenic enzyme activity assay; type: biochemical; settings: chromogenic protease activity assay
# T1 construct: purchased Sigma U0633
# Protocol: Activity of purified NSP and Serp-1 was measured as inhibitory activity for uPA, using a chromogenic assay (Assaypro, St. Louis, Mo., USA) as previously described (for example, see, Dai E, et al. (2003) J Biol Chem 278: 18563-18572). Serp-1, NSP or individual peptides were mixed with enzyme solution at room temperature for one hour, per the manufacturers protocol (American Diagnostics). After incubation, 10 μl of chromogenic substrate was added. The 96-well plate was covered and placed in a wet box for overnight incubation at 37° C. After a 17 hr incubation, the plate was read at 405 nm by microplate reader (Bio-Tek Instruments). Reaction buffer (100 mM NaCl, 2 mM CaCl2, 100 mM Tris-HCl, pH 7.5, Triton X-100, 0.005%) was used for dilutions of proteases, Serp-1, NSP, or serpin peptides and chromogenic substrate. Residual protease activity was calculated with comparison to control samples without active serpin or peptides.
# Serpin inhibition activity of peptides was also assessed using assays for uPA, tPA, plamin, PAI-1 and anti-thrombin III (ATIII). […] Peptide inhibition of ATIII (ThermoFisher Scientific, Grand Island, N.Y.) was measured as a reduction in its thrombin activity. uPA (Sigma, U0633) activity towards pefachrome uPA (Enzyme Research Laboratories, South Bend, Ind., P082-33) was used for assaying peptide inhibition. […]
# [5] = test system: lethal viral sepsis; settings: in vivo; cited from earlier work
# [6] = test system: THP-1 monocytes; assay: RT-PCR signaling pathway gene expression analysis, THP-1 monocytes; type: cell-based, human; settings: THP-1 cells, vs saline
# From the text: as §1, §2
# [7] = in vivo; cited from earlier work
# [8] = test system: PMA activated THP-1 monocytes; assay: Membrane fluidity cell activation assay; type: cell-based, human; settings: peptides 500, 1000, 1500 ng/ml, Serp-1, NSP 500 ng/mL
# Protocol: Cellular membrane fluidity is measured by pyrene dimer formation in the lipid bilayer and is used as a non-specific measure of cell activation (Zalai C V, et al. (2001) J Am Coll Cardiol 38: 1340-1347). Increases in THP-1 human monocyte membrane fluidity, after PMA activation, correlate with changes in cell activation, adhesion and motility. […] Serpin-derived peptide treatments paralleled in vivo activity with the one exception being the S-4 peptide. […] All serpin-derived peptides were tested at three doses 500, 1000 and 1500 ng/ml.
# One million >95% viable THP-1, Jurkat T, or 5×10^5 HUVEC cells were labeled with BPP (0.8 μM) for studying core membrane fluidity, three hours prior to cell activation as previously described (Viswanathan K, et al. (2009) B. J Leukoc Biol 85: 418-426; Viswanathan K, et al. (2006) Thromb Haemost 95: 499-510; Zalai C V, et al. (2001) J Am Coll Cardiol 38: 1340-1347; Viswanathan K, et al. (2012) PLoS One 7: e44694; and Christov A, et al. (2001) Lasers Surg Med 28: 414-426). […] At the end of one hour, cells were washed to remove excess fluorescent probe and monomer, excimer fluorescence emission intensities were measured at 390 nm and 485 nm, respectively, during excitation at 320 nm using a fluorescent dual wavelength reader (Fluoroskan, Thermolab systems, Oy, USA). […]
molecule,measurement,setting,value
"CC(C)C[C@H](NC(=O)[C@H](C)NC(=O)[C@H](CC(N)=O)NC(=O)[C@@H](N)CCCNC(=N)N)C(=O)O [S-3, RNAL] (H-RNAL-OH; N-terminus and C-terminus assumed)",Adverse Events (number),[1]; 15 μg/mouse,0
EVNEEGSEAAAVSGM [S-6],Adverse Events (kind),[1]; 1.5 μg/mouse,thrombosis
same,Adverse Events (number),[1]; 1.5 μg/mouse,1
same,mortality (early thrombosis at site of aortic allograft transplant),[1]; 15 μg dose,100%
same,Adverse Events (kind),[1]; 15 μg/mouse,thromboses
same,Adverse Events (number),[1]; 15 μg/mouse,6
GTTASSDTAITLIPR [S-7],Adverse Events (number),[1]; 15 μg/mouse,0
"IAISRM [S-4, IAISRM]",Adverse Events (number),[1]; 15 μg/mouse,0
"IPRNAL [S-1, IPRNAL]",Adverse Events (number),[1]; 1.5 μg/mouse,0
same,Adverse Events (kind),[1]; 15 μg/mouse,thrombosis; also recorded: fighting injury
same,Adverse Events (number),[1]; 15 μg/mouse,1
same,Adverse Events (number),[1]; 150 μg/mouse,0
"ISRMAV [S-2, ISRMAV]",Adverse Events (kind),[1]; 15 μg/mouse,thrombosis
same,Adverse Events (number),[1]; 15 μg/mouse,1
MAVLYPQVIVDHPFFFLIRNR [S-8],Adverse Events (number),[1]; 15 μg/mouse,0
TAIVANKPF [S-5],Adverse Events (number),[1]; 1.5 μg/mouse,0
same,Adverse Events (number),[1]; 15 μg/mouse,0
same,Adverse Events (number),[1]; 150 μg/mouse,0
B1,early markers of myocardial damage,[2],reduced early markers of myocardial damage
same,BCL-2 gene expression,[3],had no effect
same,TCF7 gene expression,[3],inhibited
same,CCL 20 gene expression,[3]; data not shown,had no effect
same,CCND-1 gene expression,[3]; data not shown,had no effect
same,MMP7 gene expression,[3]; data not shown,had no effect
same,interleukin-8 (IL-8) gene expression,[3]; data not shown,had no effect
same,inhibition of uPA activity,[4],inhibited; also recorded: dose dependent with greater inhibition at the higher concentration (500 ng)
same,survival in mouse models of lethal viral sepsis,[5],improved survival
same,BRCA1 gene expression,[6],induced
same,Selectin P ligand (CD162) gene expression,[6],induced
same,cyclin-dependent kinase inhibitor 1B (CDKN1; p27) gene expression,[6],induced
same,glycogen synthase (GYS) gene expression,[6],induced
same,plasma half-life,[7],20 to 60 min
same,IEx/IMon ratio (membrane fluidity),[8],consistently reduced membrane fluidity significantly
B2,inhibition of uPA activity,[4],inhibited
same,IEx/IMon ratio (membrane fluidity),[8],consistently reduced membrane fluidity significantly
same,Adverse Events (kind),[1]; 15 μg/mouse,thrombosis
same,Adverse Events (number),[1]; 15 μg/mouse,1
